Measurements from patent US20230159662A1 (Kyowa Kirin, published 2023).
Substitutions are numbered along the chain they refer to. Numbers in names are those of the source.

B1: human IgG1 anti-human CCR4 antibody (KM2160), S239D/K326E (antibody)
heavy: not shown
light: DVLMTQTPLSLPVSLGDQASISCRSSRNIVHINGDTYLEWYLQRPGQSPKLLIYKVSNRFSGVPDRFSGSGSGTDFTLKISRVEAEDLGVYYCFQGSLLPWTFGGGTRLEIRRTVAAPSVFIFPPSDEQLKSGTASVVCLLNNFYPREAKVQWKVDNALQSGNSQESVTEQDSKDSTYSLSSTLTLSKADYEKHKVYACEVTHQGLSSPVTKSFNRGEC
B2: human IgG1 anti-human CCR4 antibody (KM2160), S239D/I332W (antibody)
heavy: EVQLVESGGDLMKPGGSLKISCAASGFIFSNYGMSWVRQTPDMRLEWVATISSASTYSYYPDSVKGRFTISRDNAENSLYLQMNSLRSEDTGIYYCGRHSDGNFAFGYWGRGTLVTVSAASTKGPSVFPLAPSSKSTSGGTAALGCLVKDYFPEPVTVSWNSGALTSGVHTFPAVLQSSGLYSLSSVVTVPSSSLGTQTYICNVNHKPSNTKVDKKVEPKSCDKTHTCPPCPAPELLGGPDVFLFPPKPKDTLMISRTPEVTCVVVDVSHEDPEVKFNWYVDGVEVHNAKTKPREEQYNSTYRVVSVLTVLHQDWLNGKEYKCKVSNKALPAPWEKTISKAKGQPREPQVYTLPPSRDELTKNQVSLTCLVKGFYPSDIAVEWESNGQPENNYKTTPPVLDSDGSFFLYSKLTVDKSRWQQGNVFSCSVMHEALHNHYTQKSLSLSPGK
light: B1 light
B3: human IgG1 anti-human CCR4 antibody (KM2160), S239E/K326L (antibody)
heavy: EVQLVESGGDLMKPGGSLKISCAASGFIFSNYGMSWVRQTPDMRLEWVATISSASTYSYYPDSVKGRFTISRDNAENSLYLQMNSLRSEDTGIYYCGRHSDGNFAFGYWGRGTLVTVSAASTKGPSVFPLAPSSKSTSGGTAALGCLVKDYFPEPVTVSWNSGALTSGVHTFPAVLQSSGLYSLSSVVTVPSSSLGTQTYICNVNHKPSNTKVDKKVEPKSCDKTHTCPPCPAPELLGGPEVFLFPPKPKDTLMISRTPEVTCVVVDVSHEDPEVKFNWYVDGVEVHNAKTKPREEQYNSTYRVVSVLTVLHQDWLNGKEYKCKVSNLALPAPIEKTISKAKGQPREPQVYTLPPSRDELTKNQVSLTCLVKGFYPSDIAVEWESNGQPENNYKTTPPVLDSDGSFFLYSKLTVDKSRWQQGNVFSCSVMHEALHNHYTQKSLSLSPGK
light: B1 light
B4: human IgG1 anti-human CCR4 antibody (KM2160), S239E/I332Y (antibody)
heavy: not shown
light: B1 light
B5: human IgG1 anti-human CCR4 antibody (KM2160), S239E/K326E (antibody)
heavy: not shown
light: B1 light
B6: human IgG1 anti-human CCR4 antibody (KM2160), S239D/I332H (antibody)
heavy: not shown
light: B1 light
B7: human IgG1 anti-human CCR4 antibody (KM2160), S239E/I332A (antibody)
heavy: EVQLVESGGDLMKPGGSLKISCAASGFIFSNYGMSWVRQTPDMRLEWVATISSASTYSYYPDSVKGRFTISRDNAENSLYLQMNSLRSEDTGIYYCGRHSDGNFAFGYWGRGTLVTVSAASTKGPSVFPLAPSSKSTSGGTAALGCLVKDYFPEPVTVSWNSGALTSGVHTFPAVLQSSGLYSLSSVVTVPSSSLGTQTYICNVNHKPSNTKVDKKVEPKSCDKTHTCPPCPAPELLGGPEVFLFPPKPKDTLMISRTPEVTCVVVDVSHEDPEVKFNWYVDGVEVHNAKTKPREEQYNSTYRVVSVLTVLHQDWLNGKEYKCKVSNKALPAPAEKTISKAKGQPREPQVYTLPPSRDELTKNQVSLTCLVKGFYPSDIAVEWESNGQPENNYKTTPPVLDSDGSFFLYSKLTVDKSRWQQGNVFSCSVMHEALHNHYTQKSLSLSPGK
light: B1 light
B8: human IgG1 anti-human CCR4 antibody (KM2160), S239E/I332L (antibody)
heavy: not shown
light: B1 light
B9: human IgG1 anti-human CCR4 antibody (KM2160), S239E/K326T (antibody)
heavy: not shown
light: B1 light
B10: human IgG1 anti-human CCR4 antibody (KM2160), S239E/I332H (antibody)
heavy: not shown
light: B1 light
B11: human IgG1 anti-human CCR4 antibody (KM2160), S239D/I332F (antibody)
heavy: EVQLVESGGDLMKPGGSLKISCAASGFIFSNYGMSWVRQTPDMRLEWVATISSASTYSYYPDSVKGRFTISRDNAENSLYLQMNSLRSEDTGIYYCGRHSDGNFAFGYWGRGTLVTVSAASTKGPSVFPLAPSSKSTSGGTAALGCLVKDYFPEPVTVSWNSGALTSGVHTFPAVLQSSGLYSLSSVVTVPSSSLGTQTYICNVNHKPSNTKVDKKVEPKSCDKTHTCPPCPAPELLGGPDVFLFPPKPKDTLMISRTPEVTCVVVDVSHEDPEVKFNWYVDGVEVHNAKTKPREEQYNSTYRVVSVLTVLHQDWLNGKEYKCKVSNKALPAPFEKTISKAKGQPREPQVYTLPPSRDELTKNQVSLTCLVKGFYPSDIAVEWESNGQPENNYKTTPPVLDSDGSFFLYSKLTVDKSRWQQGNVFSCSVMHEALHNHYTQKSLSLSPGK
light: B1 light
B12: human IgG1 anti-human CCR4 antibody (KM2160), S239E/I332F (antibody)
heavy: not shown
light: B1 light
B13: human IgG1 anti-human CCR4 antibody (KM2160), S239E/K326I (antibody)
heavy: not shown
light: B1 light
B14: human IgG1 anti-human CCR4 antibody (KM2160), S239D/I332D (antibody)
heavy: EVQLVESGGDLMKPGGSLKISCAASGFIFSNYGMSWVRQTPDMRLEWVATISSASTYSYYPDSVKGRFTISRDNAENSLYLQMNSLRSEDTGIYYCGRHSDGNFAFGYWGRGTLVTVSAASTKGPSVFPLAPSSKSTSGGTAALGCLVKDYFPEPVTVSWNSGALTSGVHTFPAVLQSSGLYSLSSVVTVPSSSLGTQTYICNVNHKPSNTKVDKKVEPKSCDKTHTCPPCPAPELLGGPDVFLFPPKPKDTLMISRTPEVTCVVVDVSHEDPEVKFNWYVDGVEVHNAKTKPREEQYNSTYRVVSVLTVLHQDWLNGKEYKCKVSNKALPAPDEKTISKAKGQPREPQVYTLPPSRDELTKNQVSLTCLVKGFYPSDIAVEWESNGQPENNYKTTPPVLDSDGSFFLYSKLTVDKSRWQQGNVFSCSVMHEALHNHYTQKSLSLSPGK
light: B1 light
B15: human IgG1 anti-human CCR4 antibody (KM2160), S239D/I332T (antibody)
heavy: not shown
light: B1 light
B16: human IgG1 anti-human CCR4 antibody (KM2160), printed as S239E/I332E, CH of SEQ ID NO 178 (antibody)
heavy: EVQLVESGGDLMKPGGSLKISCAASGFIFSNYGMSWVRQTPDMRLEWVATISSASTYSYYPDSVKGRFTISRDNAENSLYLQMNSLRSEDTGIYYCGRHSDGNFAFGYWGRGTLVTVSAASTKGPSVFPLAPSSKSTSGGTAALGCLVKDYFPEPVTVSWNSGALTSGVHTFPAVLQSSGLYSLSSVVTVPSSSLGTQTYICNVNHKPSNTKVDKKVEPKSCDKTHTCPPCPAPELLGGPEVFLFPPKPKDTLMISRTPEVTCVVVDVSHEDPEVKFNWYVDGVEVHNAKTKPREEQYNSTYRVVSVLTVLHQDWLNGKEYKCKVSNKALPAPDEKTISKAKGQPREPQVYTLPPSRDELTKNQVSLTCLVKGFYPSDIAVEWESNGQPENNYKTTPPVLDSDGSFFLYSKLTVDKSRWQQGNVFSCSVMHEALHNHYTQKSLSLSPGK
light: B1 light
B17: human IgG1 anti-human CCR4 antibody (KM2160), S239D/I332L (antibody)
heavy: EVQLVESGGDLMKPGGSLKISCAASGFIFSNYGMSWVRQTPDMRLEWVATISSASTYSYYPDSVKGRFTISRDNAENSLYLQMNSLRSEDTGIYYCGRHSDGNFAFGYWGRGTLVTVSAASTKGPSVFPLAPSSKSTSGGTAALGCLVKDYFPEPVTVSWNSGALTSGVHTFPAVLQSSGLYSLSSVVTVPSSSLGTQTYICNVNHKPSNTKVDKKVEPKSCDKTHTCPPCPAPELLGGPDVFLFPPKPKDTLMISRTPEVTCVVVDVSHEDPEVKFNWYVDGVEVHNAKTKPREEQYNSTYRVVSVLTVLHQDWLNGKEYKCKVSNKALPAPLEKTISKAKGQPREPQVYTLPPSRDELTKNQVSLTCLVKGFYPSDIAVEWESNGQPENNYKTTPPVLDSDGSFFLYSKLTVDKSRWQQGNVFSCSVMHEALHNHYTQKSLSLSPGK
light: B1 light
B18: human IgG1 anti-human CCR4 antibody (KM2160), S239D/K326L (antibody)
heavy: not shown
light: B1 light
B19: human IgG1 anti-human CCR4 antibody (KM2160), S239D/I332A (antibody)
heavy: not shown
light: B1 light
B20: human IgG1 anti-human CCR4 antibody (KM2160), S239D/L326I (as printed) (antibody)
heavy: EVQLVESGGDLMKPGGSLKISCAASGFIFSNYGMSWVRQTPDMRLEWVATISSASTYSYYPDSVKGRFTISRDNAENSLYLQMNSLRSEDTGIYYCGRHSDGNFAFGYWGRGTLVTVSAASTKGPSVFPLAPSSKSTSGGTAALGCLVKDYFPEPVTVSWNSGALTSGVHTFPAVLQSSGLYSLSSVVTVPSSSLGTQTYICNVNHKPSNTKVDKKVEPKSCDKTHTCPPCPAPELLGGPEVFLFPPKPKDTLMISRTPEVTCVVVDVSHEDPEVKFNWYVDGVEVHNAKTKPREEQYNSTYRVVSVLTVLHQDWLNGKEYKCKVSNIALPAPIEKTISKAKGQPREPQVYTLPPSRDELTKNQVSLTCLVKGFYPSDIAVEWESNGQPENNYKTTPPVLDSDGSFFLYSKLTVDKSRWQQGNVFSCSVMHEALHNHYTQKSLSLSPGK
light: B1 light
B21: human IgG1 anti-human CCR4 antibody (KM2160), S239E/I332E, CH of SEQ ID NO 176 (antibody)
heavy: not shown
light: B1 light
B22: human IgG1 anti-human CCR4 antibody (KM2160), S239E/I332T (antibody)
heavy: not shown
light: B1 light
B23: human IgG1 anti-human CCR4 antibody (KM2160), S239D/I332Y (antibody)
heavy: not shown
light: B1 light
B24: human IgG1 anti-human CCR4 antibody (KM2160), S239E/I332W (antibody)
heavy: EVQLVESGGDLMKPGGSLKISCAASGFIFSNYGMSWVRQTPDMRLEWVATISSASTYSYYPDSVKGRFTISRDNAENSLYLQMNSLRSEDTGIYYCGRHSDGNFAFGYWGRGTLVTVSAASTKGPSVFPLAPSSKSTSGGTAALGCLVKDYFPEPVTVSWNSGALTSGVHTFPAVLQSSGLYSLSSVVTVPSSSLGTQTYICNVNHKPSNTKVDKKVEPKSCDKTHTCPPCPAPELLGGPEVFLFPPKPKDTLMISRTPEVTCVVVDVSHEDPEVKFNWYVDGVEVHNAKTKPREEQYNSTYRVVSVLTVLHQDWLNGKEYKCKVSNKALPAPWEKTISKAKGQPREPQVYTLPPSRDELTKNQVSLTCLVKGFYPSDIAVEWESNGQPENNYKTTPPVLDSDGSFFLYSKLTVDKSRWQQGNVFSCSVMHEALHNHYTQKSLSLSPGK
light: B1 light
B25: human IgG1 anti-human CCR4 antibody (KM2160), S298A/E333A/K334A (AAA)/P247L/N421K (antibody)
heavy: EVQLVESGGDLMKPGGSLKISCAASGFIFSNYGMSWVRQTPDMRLEWVATISSASTYSYYPDSVKGRFTISRDNAENSLYLQMNSLRSEDTGIYYCGRHSDGNFAFGYWGRGTLVTVSAASTKGPSVFPLAPSSKSTSGGTAALGCLVKDYFPEPVTVSWNSGALTSGVHTFPAVLQSSGLYSLSSVVTVPSSSLGTQTYICNVNHKPSNTKVDKKVEPKSCDKTHTCPPCPAPELLGGPSVFLFPPKLKDTLMISRTPEVTCVVVDVSHEDPEVKFNWYVDGVEVHNAKTKPREEQYNATYRVVSVLTVLHQDWLNGKEYKCKVSNKALPAPIAATISKAKGQPREPQVYTLPPSRDELTKNQVSLTCLVKGFYPSDIAVEWESNGQPENNYKTTPPVLDSDGSFFLYSKLTVDKSRWQQGKVFSCSVMHEALHNHYTQKSLSLSPGK
light: B1 light
B26: human IgG1 anti-human CCR4 antibody (KM2160), S298A/E333A/K334A (AAA)/E258H (antibody)
heavy: B25 heavy with L249P, E260H, K423N
light: B1 light
B27: human IgG1 anti-human CCR4 antibody (KM2160), S298A/E333A/K334A (AAA)/S239D/I332E (antibody)
heavy: B25 heavy with S241D, L249P, I334E, K423N
light: B1 light
B28: human IgG1 anti-human CCR4 antibody (KM2160), S298A/E333A/K334A (AAA)/Q295T (antibody)
heavy: B25 heavy with L249P, Q297T, K423N
light: B1 light
B29: human IgG1 anti-human CCR4 antibody (KM2160), S239D (antibody)
heavy: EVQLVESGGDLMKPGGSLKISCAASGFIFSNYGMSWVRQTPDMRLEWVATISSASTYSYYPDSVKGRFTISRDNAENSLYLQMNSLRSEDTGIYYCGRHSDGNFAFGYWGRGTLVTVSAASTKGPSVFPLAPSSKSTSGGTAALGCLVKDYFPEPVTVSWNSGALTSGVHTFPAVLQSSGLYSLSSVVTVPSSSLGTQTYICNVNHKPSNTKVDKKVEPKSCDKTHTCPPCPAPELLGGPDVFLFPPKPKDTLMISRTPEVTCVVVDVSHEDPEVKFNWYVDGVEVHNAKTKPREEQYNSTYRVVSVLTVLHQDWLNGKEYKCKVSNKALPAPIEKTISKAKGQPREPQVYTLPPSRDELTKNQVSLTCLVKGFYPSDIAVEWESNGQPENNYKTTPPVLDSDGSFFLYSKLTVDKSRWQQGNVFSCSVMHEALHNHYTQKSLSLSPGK
light: B1 light
B30: human IgG1 anti-human CCR4 antibody (KM2160), S298A/E333A/K334A (AAA)/A339T (antibody)
heavy: B25 heavy with L249P, A341T, K423N
light: B1 light
B31: human IgG1 anti-human CCR4 antibody (KM2160), S298A/E333A/K334A (AAA)/D265G (antibody)
heavy: B25 heavy with L249P, D267G, K423N
light: B1 light
B32: human IgG1 anti-human CCR4 antibody (KM2160), S298A/E333A/K334A (AAA)/K248M (antibody)
heavy: B25 heavy with L249P, K250M, K423N
light: B1 light
B33: human IgG1 anti-human CCR4 antibody (KM2160), S298A/E333A/K334A (AAA)/P329R (antibody)
heavy: B25 heavy with L249P, P331R, K423N
light: B1 light
B34: human IgG1 anti-human CCR4 antibody (KM2160), S298A/E333A/K334A (AAA)/A330F (antibody)
heavy: B25 heavy with L249P, A332F, K423N
light: B1 light
B35: human IgG1 anti-human CCR4 antibody (KM2160), S298A/E333A/K334A (AAA)/G236S (antibody)
heavy: B25 heavy with G238S, L249P, K423N
light: B1 light
B36: human IgG1 anti-human CCR4 antibody (KM2160), S298A/E333A/K334E (antibody)
heavy: B25 heavy with L249P, A336E, K423N
light: B1 light
B37: human IgG1 anti-human CCR4 antibody (KM2160), S298A/E333A/K334A (AAA)/E283L (antibody)
heavy: B25 heavy with L249P, E285L, K423N
light: B1 light
B38: human IgG1 anti-human CCR4 antibody (KM2160), S298A/E333A/K334A (AAA)/L235T (antibody)
heavy: B25 heavy with L237T, L249P, K423N
light: B1 light
B39: human IgG1 anti-human CCR4 antibody (KM2160), S298A/E333A/K334A (AAA)/E294W (antibody)
heavy: B25 heavy with L249P, E296W, K423N
light: B1 light
B40: human IgG1 anti-human CCR4 antibody (KM2160), S298A/E333A/K334A (AAA)/S239D (antibody)
heavy: B25 heavy with S241D, L249P, K423N
light: B1 light
B41: human IgG1 anti-human CCR4 antibody (KM2160), S298A/E333A/K334A (AAA)/F372Y (antibody)
heavy: B25 heavy with L249P, F374Y, K423N
light: B1 light
B42: human IgG1 anti-human CCR4 antibody (KM2160), S298A/E333A/K334A (AAA)/A327D (antibody)
heavy: B25 heavy with L249P, A329D, K423N
light: B1 light
B43: human IgG1 anti-human CCR4 antibody (KM2160), S239E (antibody)
heavy: not shown
light: B1 light
B44: human IgG1 anti-human CCR4 antibody (KM2160), printed as S298A/E333A/K334A, CH of SEQ ID NO 120 (antibody)
heavy: B25 heavy with L249P, A300T, K423N
light: B1 light
B45: human IgG1 anti-human CCR4 antibody (KM2160), S298A/E333A/K334A (AAA)/F243L (antibody)
heavy: B25 heavy with F245L, L249P, K423N
light: B1 light
B46: human IgG1 anti-human CCR4 antibody (KM2160), S298A/E333A/R292L/K334E (antibody)
heavy: B25 heavy with L249P, R294L, A336E, K423N
light: B1 light
B47: human IgG1 anti-human CCR4 antibody (KM2160), S298A/E333A/K334A (AAA)/V379M (antibody)
heavy: B25 heavy with L249P, V381M, K423N
light: B1 light

Molecular target: T1, human CD16a (Val type) stably expressed on NK-92 cells (NK-92/CD16 transfectant) (human, UniProt P08637 17-254)
Assay: cell-based or functional assay

T1 sequence (P08637 17-254 F176V): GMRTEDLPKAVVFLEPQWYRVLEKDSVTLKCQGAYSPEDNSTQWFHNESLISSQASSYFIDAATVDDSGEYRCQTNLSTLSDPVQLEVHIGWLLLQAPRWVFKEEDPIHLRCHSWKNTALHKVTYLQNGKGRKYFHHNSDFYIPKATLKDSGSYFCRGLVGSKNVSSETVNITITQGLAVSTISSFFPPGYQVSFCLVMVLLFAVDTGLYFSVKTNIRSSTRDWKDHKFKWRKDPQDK

relative ADCC activity (AAA = 100)	Binder
147 relative, AAA at 0.1 µg/mL = 100	B1
94 relative, AAA at 0.1 µg/mL = 100	B2
109 relative, AAA at 0.1 µg/mL = 100	B3
130 relative, AAA at 0.1 µg/mL = 100	B4
129 relative, AAA at 0.1 µg/mL = 100	B5
84 relative, AAA at 0.1 µg/mL = 100	B6
62 relative, AAA at 0.1 µg/mL = 100	B7
57 relative, AAA at 0.1 µg/mL = 100	B8
132 relative, AAA at 0.1 µg/mL = 100	B9
71 relative, AAA at 0.1 µg/mL = 100	B10
93 relative, AAA at 0.1 µg/mL = 100	B11
34 relative, AAA at 0.1 µg/mL = 100	B12
135 relative, AAA at 0.1 µg/mL = 100	B13
150 relative, AAA at 0.1 µg/mL = 100	B14
72 relative, AAA at 0.1 µg/mL = 100	B15
90 relative, AAA at 0.1 µg/mL = 100	B16
82 relative, AAA at 0.1 µg/mL = 100	B17
113 relative, AAA at 0.1 µg/mL = 100	B18
94 relative, AAA at 0.1 µg/mL = 100	B19
146 relative, AAA at 0.1 µg/mL = 100	B20
153 relative, AAA at 0.1 µg/mL = 100	B21
52 relative, AAA at 0.1 µg/mL = 100	B22
123 relative, AAA at 0.1 µg/mL = 100	B23
44 relative, AAA at 0.1 µg/mL = 100	B24

Molecular target: T1, human CD16a (Val type) stably expressed …
Assay: cell-based or functional assay
Remark: another data set of the same source

relative ADCC activity (AAA = 100)	Binder
175 relative, AAA at 0.1 µg/mL = 100	B25
94 relative, AAA at 0.1 µg/mL = 100	B26
119 relative, AAA at 0.1 µg/mL = 100	B27
4 relative, AAA at 0.1 µg/mL = 100	B28
116 relative, AAA at 0.1 µg/mL = 100	B29
36 relative, AAA at 0.1 µg/mL = 100	B30
-89 relative, AAA at 0.1 µg/mL = 100	B31
165 relative, AAA at 0.1 µg/mL = 100	B32
5 relative, AAA at 0.1 µg/mL = 100	B33
96 relative, AAA at 0.1 µg/mL = 100	B34
-46 relative, AAA at 0.1 µg/mL = 100	B35
114 relative, AAA at 0.1 µg/mL = 100	B36
82 relative, AAA at 0.1 µg/mL = 100	B37
-69 relative, AAA at 0.1 µg/mL = 100	B38
171 relative, AAA at 0.1 µg/mL = 100	B39
291 relative, AAA at 0.1 µg/mL = 100	B40
70 relative, AAA at 0.1 µg/mL = 100	B41
-28 relative, AAA at 0.1 µg/mL = 100	B42
88 relative, AAA at 0.1 µg/mL = 100	B43
-97 relative, AAA at 0.1 µg/mL = 100	B44
79 relative, AAA at 0.1 µg/mL = 100	B45
163 relative, AAA at 0.1 µg/mL = 100	B46
51 relative, AAA at 0.1 µg/mL = 100	B47
